Results reported in IntAct's records for PubMed 31515488.

B1: Notch homolog 2 N-terminal-like protein A (Homo sapiens), Q7Z3S9 (parent)
chain: MCVTYHNGTGYCKCPEGFLGEYCQHRDPCEKNRCQNGGTCVAQAMLGKATCRCASGFTGEDCQYSTSHPCFVSRPCLNGGTCHMLSRDTYECTCQVGFTGKECQWTDACLSHPCANGSTCTTVANQFSCKCLTGFTGQKCETDVNECDIPGHCQHGGTCLNLPGSYQCQCLQGFTGQYCDSLYVPCAPSPCVNGGTCRQTGDFTFECNCLPETVRRGTELWERDREVWNGKEHDEN
B2: 60 kDa heat shock protein, mitochondrial (Homo sapiens), P10809 (parent)
chain: MLRLPTVFRQMRPVSRVLAPHLTRAYAKDVKFGADARALMLQGVDLLADAVAVTMGPKGRTVIIEQSWGSPKVTKDGVTVAKSIDLKDKYKNIGAKLVQDVANNTNEEAGDGTTTATVLARSIAKEGFEKISKGANPVEIRRGVMLAVDAVIAELKKQSKPVTTPEEIAQVATISANGDKEIGNIISDAMKKVGRKGVITVKDGKTLNDELEIIEGMKFDRGYISPYFINTSKGQKCEFQDAYVLLSEKKISSIQSIVPALEIANAHRKPLVIIAEDVDGEALSTLVLNRLKVGLQVVAVKAPGFGDNRKNQLKDMAIATGGAVFGEEGLTLNLEDVQPHDLGKVGEVIVTKDDAMLLKGKGDKAQIEKRIQEIIEQLDVTTSEYEKEKLNERLAKLSDGVAVLKVGGTSDVEVNEKKDRVTDALNATRAAVEEGIVLGGGCALLRCIPALDSLTPANEDQKIGIEIIKRTLKIPAMTIAKNAGVEGSLIVEKIMQSSSEVGYDAMAGDFVNMVEKGIIDPTKVVRTALLDAAGVASLLTTAEVVVTEIPKEEKDPGMGAMGGMGGGMGGGMF
partner: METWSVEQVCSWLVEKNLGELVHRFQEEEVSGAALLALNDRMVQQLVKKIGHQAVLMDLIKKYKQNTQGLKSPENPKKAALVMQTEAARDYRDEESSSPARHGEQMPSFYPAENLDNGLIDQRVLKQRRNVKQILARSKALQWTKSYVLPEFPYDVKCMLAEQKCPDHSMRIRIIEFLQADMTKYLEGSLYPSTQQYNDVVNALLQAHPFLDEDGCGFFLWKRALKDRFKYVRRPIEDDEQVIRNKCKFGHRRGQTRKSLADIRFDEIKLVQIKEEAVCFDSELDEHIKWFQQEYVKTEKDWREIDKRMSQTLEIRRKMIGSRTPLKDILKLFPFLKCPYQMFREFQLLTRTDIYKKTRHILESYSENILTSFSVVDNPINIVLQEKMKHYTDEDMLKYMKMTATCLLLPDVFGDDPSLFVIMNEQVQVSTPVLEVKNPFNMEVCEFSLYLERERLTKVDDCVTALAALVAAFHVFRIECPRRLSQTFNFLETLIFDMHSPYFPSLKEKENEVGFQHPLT
B3: Actin-associated protein FAM107A (Homo sapiens), O95990 (parent)
chain: MYSEIQRERADIGGLMARPEYREWNPELIKPKKLLNPVKASRSHQELHRELLMNHRRGLGVDSKPELQRVLEHRRRNQLIKKKKEELEAKRLQCPFEQELLRRQQRLNQLEKPPEKEEDHAPEFIKVRENLRRIATLTSEEREL
partner: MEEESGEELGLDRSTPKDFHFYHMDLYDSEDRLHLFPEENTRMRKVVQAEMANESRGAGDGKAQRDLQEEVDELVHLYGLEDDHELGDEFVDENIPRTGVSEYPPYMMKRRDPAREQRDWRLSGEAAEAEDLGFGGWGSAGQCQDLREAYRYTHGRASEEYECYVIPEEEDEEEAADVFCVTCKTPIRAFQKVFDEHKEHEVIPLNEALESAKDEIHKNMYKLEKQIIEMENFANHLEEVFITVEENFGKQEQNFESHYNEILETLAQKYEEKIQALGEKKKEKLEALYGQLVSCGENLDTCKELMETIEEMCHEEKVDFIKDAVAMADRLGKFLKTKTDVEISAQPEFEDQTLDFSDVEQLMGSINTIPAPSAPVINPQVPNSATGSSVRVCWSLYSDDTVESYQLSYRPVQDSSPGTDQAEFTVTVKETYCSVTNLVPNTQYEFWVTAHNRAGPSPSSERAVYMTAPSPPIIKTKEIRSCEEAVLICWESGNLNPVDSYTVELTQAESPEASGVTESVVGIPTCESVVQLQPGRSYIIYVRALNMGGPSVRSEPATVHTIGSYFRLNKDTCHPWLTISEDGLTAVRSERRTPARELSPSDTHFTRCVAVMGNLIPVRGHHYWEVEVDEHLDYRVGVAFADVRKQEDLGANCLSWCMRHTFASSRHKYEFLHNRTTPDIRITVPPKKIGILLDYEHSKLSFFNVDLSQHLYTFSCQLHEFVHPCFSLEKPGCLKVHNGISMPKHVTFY
B4: Dynein light chain 2, cytoplasmic (Homo sapiens), Q96FJ2 (parent)
chain: MSDRKAVIKNADMSEDMQQDAVDCATQAMEKYNIEKDIAAYIKKEFDKKYNPTWHCIVGRNFGSYVTHETKHFIYFYLGQVAILLFKSG
B5: Ligand of Numb protein X 2 (Homo sapiens), Q8N448 (parent)
chain: MGTTSDEMVSVEQTSSSSLNPLCFECGQQHWTRENHLYNYQNEVDDDLVCHICLQPLLQPLDTPCGHTFCYKCLRNFLQEKDFCPLDRKRLHFKLCKKSSILVHKLLDKLLVLCPFSSVCKDVMQRCDLEAHLKNRCPGASHRRVALERRKTSRTQAEIENENGPTLLDPAGTLSPEADCLGTGAVPVERHLTSASLSTWSEEPGLDNPAFEESAGADTTQQPLSLPEGEITTIEIHRSNPYIQLGISIVGGNETPLINIVIQEVYRDGVIARDGRLLAGDQILQVNNYNISNVSHNYARAVLSQPCNTLHLTVLRERRFGNRAHNHSDSNSPREEIFQVALHKRDSGEQLGIKLVRRTDEPGVFILDLLEGGLAAQDGRLSSNDRVLAINGHDLKYGTPELAAQIIQASGERVNLTIARPGKPQPGNTIREAGNHSSSSQHHTPPPYYSRPSSHKDLTQCVTCQEKHITVKKEPHESLGMTVAGGRGSKSGELPIFVTSVPPHGCLARDGRIKRGDVLLNINGIDLTNLSHSEAVAMLKASAASPAVALKALEVQIVEEATQNAEEQPSTFSENEYDASWSPSWVMWLGLPSTLHSCHDIVLRRSYLGSWGFSIVGGYEENHTNQPFFIKTIVLGTPAYYDGRLKCGDMIVAVNGLSTVGMSHSALVPMLKEQRNKVTLTVICWPGSLV
partner: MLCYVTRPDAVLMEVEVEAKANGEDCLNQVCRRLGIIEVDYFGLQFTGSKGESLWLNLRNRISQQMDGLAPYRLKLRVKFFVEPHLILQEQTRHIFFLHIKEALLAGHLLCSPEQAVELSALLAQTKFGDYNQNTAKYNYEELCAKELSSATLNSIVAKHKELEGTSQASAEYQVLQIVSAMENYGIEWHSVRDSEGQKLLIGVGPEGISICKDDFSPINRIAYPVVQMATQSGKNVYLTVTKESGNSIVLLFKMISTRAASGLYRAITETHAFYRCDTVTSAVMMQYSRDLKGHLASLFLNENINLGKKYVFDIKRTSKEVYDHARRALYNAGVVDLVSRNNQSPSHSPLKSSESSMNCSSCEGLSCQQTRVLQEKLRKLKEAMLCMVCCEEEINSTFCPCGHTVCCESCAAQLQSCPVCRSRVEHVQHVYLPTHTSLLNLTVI
B6: Late cornified envelope protein 1B (Homo sapiens), Q5T7P3 (parent)
chain: MSCQQNQQQCQPPPKCIPKCPPKCLTPRCPPKCPPKCPPVSSCCSVSSGGCCGSSSGGSCGSSSGGCCSSGGGGCCLSHHRRRRSHCHRPQSSGCCSQPSGGSSCCGGGSGQHSGGCC

Variants of: B1
Details: with pde9a_human PDE9A

Variant | effect of a mutation on the interaction
R74Q | with no effect
A115T | with no effect

Variants of: B1
Details: with ppbi_human ALPI

Variant | effect of a mutation on the interaction
R74Q | with no effect
A115T | with no effect

Variants of: B1
Details: with snai1_human SNAI1, O95863
Sequence of snai1_human SNAI1, O95863 (O95863 whole entry): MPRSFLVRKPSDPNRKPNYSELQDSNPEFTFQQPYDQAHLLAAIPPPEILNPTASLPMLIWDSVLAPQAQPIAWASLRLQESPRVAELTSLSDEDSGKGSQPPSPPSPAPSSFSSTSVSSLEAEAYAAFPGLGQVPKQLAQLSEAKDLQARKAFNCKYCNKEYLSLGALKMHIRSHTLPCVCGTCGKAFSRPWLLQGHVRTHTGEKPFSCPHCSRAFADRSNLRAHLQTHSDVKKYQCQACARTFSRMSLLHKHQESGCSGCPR

Variant | effect of a mutation on the interaction
R74Q | with no effect
A115T | with no effect

Variants of: B1
Details: with anfb_human NPPB

Variant | effect of a mutation on the interaction
R74Q | with no effect
A115T | with no effect

Variants of: B1
Details: with adck5_human ADCK5, Q3MIX3

Variant | effect of a mutation on the interaction
R74Q | with no effect
A115T | with no effect

Variants of: B1
Details: with catz_human CTSZ

Variant | effect of a mutation on the interaction
R74Q | with no effect
A115T | with no effect

Variants of: B1
Details: with txnd5_human TXNDC5, Q8NBS9

Variant | effect of a mutation on the interaction
R74Q | with no effect
A115T | with no effect

Variants of: B1
Details: with trpv6_human TRPV6, Q9H1D0

Variant | effect of a mutation on the interaction
R74Q | with no effect
A115T | with no effect

Variants of: B1
Details: with ptn23_human PTPN23, Q9H3S7
Sequence of ptn23_human PTPN23, Q9H3S7 (Q9H3S7 whole entry): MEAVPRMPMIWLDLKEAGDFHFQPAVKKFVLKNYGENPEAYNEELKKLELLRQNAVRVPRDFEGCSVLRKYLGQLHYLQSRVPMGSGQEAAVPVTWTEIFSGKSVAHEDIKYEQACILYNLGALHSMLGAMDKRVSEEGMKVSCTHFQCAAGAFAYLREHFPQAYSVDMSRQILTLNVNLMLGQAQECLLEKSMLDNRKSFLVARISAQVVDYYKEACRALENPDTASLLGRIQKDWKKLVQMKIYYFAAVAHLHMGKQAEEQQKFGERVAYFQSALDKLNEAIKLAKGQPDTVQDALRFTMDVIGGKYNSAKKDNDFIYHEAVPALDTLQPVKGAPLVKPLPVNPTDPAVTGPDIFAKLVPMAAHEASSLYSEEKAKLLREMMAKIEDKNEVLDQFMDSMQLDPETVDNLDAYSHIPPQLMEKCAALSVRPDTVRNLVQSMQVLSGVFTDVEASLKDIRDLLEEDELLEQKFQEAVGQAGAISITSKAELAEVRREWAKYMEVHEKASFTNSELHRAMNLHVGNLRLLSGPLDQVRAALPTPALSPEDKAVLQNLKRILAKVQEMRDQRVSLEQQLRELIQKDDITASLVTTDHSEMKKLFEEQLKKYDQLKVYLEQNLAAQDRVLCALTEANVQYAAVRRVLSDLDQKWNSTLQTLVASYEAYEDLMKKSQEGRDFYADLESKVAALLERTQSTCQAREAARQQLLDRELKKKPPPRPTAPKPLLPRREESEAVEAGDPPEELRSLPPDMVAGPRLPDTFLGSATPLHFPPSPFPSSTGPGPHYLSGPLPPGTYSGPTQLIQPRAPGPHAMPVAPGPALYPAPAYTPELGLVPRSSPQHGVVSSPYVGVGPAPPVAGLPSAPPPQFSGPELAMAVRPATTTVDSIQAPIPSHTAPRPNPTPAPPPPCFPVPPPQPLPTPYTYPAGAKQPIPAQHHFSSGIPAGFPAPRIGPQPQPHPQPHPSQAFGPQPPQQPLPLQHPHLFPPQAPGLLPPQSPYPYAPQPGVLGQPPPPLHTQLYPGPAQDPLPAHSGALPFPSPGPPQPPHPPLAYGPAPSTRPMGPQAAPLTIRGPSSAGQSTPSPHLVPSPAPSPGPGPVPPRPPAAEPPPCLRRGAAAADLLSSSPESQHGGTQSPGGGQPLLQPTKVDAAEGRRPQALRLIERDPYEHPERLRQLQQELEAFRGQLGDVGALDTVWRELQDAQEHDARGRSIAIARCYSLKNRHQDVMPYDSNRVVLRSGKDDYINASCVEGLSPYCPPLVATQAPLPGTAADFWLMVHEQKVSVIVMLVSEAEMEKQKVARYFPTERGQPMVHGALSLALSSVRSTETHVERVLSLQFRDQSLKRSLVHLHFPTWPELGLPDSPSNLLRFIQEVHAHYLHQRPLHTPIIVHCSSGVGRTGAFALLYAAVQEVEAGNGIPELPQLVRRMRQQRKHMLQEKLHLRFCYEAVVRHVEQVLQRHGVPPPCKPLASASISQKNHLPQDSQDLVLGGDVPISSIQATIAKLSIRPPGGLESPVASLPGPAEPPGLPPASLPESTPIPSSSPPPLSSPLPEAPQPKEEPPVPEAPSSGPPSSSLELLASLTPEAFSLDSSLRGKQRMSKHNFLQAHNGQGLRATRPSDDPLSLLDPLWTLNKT

Variant | effect of a mutation on the interaction
R74Q | with no effect
A115T | with no effect

Variants of: B1
Details: with gata2_human GATA2, P23769
Sequence of gata2_human GATA2, P23769 (P23769 whole entry): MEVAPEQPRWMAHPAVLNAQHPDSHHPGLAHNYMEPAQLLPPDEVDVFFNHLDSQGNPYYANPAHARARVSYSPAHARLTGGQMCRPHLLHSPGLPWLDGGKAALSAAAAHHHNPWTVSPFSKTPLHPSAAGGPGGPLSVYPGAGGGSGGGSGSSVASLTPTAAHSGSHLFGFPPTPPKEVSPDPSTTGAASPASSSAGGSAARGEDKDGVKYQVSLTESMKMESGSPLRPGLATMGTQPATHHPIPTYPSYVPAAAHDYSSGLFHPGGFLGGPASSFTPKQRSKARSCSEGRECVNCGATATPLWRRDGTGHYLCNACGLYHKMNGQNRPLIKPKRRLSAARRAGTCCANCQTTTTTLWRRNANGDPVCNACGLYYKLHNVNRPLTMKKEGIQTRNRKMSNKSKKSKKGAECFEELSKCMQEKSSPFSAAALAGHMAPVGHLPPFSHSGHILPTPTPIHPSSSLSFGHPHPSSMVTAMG

Variant | effect of a mutation on the interaction
R74Q | with no effect
A115T | with no effect

Variants of: B1
Details: with hbaz_human HBZ

Variant | effect of a mutation on the interaction
R74Q | with no effect
A115T | with no effect

Variants of: B1
Details: with nect3_human NECTIN3, Q9NQS3
Sequence of nect3_human NECTIN3, Q9NQS3 (Q9NQS3 whole entry, looked up): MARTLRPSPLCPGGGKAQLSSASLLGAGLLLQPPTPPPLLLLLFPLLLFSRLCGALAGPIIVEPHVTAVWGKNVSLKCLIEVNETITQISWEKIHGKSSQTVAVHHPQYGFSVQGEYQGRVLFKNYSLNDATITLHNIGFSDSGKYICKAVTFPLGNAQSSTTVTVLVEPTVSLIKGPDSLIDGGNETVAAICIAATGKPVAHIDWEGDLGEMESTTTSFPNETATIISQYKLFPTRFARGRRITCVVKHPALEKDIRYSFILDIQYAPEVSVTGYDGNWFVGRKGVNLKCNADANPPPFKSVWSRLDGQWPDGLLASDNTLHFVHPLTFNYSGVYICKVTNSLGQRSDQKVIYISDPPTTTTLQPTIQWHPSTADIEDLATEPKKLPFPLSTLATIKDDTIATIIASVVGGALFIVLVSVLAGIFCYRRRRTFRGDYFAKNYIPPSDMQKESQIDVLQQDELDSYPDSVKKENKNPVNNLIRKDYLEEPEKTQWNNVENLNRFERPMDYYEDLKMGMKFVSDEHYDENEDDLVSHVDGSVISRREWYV

Variant | effect of a mutation on the interaction
R74Q | with no effect
A115T | with no effect

Variants of: B1
Details: with cd5r1_human CDK5R1, Q15078
Sequence of cd5r1_human CDK5R1, Q15078 (Q15078 whole entry): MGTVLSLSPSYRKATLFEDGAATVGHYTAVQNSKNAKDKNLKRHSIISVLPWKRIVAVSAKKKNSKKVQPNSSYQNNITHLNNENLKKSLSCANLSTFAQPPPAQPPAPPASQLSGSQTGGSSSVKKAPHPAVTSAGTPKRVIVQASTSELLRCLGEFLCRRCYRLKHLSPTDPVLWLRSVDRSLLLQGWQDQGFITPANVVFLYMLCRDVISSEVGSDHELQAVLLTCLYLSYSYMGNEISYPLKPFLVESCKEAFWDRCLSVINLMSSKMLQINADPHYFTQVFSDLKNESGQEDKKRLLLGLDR

Variant | effect of a mutation on the interaction
R74Q | with no effect
A115T | with no effect

Variants of: B1
Details: with uxt_human UXT

Variant | effect of a mutation on the interaction
R74Q | with no effect
A115T | with no effect

Variants of: B1
Details: with yipf3_human YIPF3, Q9GZM5
Sequence of yipf3_human YIPF3, Q9GZM5 (Q9GZM5 whole entry): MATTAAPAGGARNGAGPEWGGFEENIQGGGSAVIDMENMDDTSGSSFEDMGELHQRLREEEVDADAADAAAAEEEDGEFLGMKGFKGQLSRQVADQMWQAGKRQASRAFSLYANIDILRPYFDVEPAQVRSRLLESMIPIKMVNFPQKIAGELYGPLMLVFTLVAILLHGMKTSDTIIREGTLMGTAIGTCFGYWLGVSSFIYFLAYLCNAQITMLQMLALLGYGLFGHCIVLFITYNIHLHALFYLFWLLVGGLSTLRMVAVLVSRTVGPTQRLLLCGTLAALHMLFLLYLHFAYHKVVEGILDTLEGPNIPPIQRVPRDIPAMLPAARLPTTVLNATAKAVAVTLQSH

Variant | effect of a mutation on the interaction
R74Q | with no effect
A115T | with no effect

Variants of: B1
Details: with thms2_human THEMIS2, Q5TEJ8

Variant | effect of a mutation on the interaction
R74Q | with no effect
A115T | with no effect

Variants of: B1
Details: with bmp7_human BMP7, P18075

Variant | effect of a mutation on the interaction
R74Q | with no effect
A115T | with no effect

Variants of: B1
Details: with cxcl5_human CXCL5, P42830
Sequence of cxcl5_human CXCL5, P42830 (P42830 whole entry): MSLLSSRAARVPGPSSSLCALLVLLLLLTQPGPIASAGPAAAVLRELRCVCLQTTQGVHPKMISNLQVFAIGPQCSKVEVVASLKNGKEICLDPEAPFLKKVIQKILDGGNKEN

Variant | effect of a mutation on the interaction
R74Q | with no effect
A115T | with no effect

Variants of: B1
Details: with itb2_human ITGB2, P05107

Variant | effect of a mutation on the interaction
A115T | with no effect

Variants of: B2
Details: with samd3_human SAMD3, Q8N6K7

Variant | effect of a mutation on the interaction
R9G | with no effect

Variants of: B3
Details: with fsd2_human FSD2, A1L4K1

Variant | effect of a mutation on the interaction
E141Q | disrupting interaction strength

Variants of: B4
Details: with tha10_human THAP10, Q9P2Z0

Variant | effect of a mutation on the interaction
N33S | with no effect

Variants of: B5
Details: with mylip_human MYLIP

Variant | effect of a mutation on the interaction
S198P | with no effect

Variants of: B6
Details: with hxa1_human HOXA1, P49639
Sequence of hxa1_human HOXA1, P49639 (P49639 whole entry): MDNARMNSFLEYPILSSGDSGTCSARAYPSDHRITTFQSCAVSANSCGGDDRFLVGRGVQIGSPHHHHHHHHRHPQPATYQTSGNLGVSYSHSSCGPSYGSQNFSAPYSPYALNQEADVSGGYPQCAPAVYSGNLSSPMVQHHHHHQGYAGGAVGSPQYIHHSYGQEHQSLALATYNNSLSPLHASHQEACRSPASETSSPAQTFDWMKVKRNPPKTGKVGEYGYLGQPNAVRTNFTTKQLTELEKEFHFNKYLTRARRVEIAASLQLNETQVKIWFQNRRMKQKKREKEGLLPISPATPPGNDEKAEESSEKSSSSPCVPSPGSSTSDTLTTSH

Variant | effect of a mutation on the interaction
G108E | with no effect
H113Q | with no effect
C51Y | with no effect

Variants of: B6
Details: with nt2na_human NOTCH2NLA

Variant | effect of a mutation on the interaction
G108E | with no effect
H113Q | with no effect
C51Y | with no effect

Variants of: B6
Details: with kr101_human KRTAP10-1, P60331
Sequence of kr101_human KRTAP10-1, P60331 (P60331 whole entry): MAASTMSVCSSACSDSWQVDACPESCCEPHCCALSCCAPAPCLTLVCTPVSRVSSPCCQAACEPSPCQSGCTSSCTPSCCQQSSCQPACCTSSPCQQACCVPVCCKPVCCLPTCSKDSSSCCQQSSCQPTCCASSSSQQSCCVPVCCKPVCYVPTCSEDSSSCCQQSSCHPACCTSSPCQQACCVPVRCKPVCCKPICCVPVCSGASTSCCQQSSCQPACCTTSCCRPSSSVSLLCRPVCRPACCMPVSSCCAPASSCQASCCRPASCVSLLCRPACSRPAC

Variant | effect of a mutation on the interaction
G108E | with no effect
H113Q | with no effect
C51Y | with no effect

Variants of: B6
Details: with otx1_human OTX1, P32242
Sequence of otx1_human OTX1, P32242 (P32242 whole entry): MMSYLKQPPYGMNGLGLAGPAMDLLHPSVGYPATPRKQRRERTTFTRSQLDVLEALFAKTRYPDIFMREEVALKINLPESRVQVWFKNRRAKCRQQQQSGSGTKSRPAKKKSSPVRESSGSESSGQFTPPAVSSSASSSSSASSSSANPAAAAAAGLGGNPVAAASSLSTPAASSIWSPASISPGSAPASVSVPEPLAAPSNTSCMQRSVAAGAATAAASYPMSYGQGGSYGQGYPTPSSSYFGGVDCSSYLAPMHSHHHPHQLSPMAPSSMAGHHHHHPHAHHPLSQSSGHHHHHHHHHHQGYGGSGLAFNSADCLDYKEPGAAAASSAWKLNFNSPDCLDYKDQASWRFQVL

Variant | effect of a mutation on the interaction
G108E | with no effect
H113Q | with no effect
C51Y | with no effect

Variants of: B6
Details: with rgs20_human RGS20, O76081

Variant | effect of a mutation on the interaction
R83H | with no effect

Variants of: B6
Details: with kra32_human KRTAP3-2, Q9BYR7
Sequence of kra32_human KRTAP3-2, Q9BYR7 (Q9BYR7 whole entry): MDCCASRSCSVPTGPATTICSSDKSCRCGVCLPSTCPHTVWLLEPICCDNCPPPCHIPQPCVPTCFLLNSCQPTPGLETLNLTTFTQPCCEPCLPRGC

Variant | effect of a mutation on the interaction
R83H | with no effect
